Here are results for one molecule from patent US20210388097A1 (SORRENTO THERAPEUTICS, published 2021).

Assay [1] addresses T1, human TACI/TNFRSF13B (CD267) His-tag, from Sino Biological (human, UniProt O14836 1-166, limits assumed).
T1 construct: Bought protein; not shown: His-tag
T1 sequence (looked up): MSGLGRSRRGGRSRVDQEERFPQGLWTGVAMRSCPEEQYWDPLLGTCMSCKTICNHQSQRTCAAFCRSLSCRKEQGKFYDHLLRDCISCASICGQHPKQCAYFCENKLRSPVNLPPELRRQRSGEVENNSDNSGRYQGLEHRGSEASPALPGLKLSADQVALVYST
As to the kind of experiment: bio-layer interferometry, antibody coupled to AR2G sensor, TACI in solution. The procedure: Bio-layer interferometry was used to measure cross-binding between (1) two different anti-BCMA antibodies (BCA7-2C5 or BB C11D5) or a control isotype, and (2) various human antigens including TACI and BAFFR.
Immobilization of antibody was achieved through standard EDC-catalyzed amide bond formation to create a covalent bond between a reactive amine on the protein and the carboxy-terminated biosensor surface. Briefly, AR2G sensors (OctetRED96e from ForteBio) were activated by EDC-NHS for 6 minutes, then 5 ug/ml antibodies were loaded (BCA7-2C5 antibody, Bluebird C11D5 chimeric antibody, or a human IgG isotype antibody) in 10 mM acetate buffer pH 5.0 for 6 minutes, followed by quenching for 6 minutes with 1M ethanolamine pH 8.5. The 3 minutes baseline step removed any unbound antibody from the biosensor, followed by 1.5 minutes each for association of three analyte proteins TACI (human TACI/TNFRSF13B (CD267) His-tag, from Sino Biological, 1 ug/mL in PBS), BAFFR (human BAFFR/TNFRSF13C (CD268) Fc tag) from Sino Biological, 2 ug/mL in PBS), and human BCMA protein (in-house made with mouse Fc, 2 ug/mL in PBS).

Assay [2] concerns the target T2, his-tagged human BCMA protein (ACROBiosystems, catalog # BCA-H522y-100 ug) (human, UniProt Q02223 1-54).
T2 construct: limits of the bought construct are not otherwise stated; also called recombinant his-tagged human BCMA; not shown: his tag of the bought protein
T2 sequence: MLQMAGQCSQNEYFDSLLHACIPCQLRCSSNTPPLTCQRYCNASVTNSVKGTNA
As to the kind of experiment: SPR (Biacore T200), antibody captured on anti-human Fc chip, his-tagged human BCMA as analyte. As to the method: (§1) Binding kinetics of anti-BCMA antibodies with his-tagged human BCMA protein (ACROBiosystems, catalog # BCA-H522y-100 ug, UniProt Q02223-1, SEQ ID NO:92) was measured using surface plasmon resonance (SPR). Kinetic interactions between the antibodies and his-tagged BCMA proteins were measured at 25° C. using Biacore T200 surface plasmon resonance (GE Healthcare). Anti-human fragment crystallizable region (Fc region) antibody was immobilized on a CM5 sensor chip to approximately 8000 resonance units (RU) using standard N-hydroxysuccinimide/N-Ethyl-N′-(3-dimethylaminopropyl) carbodiimide hydrochloride (NHS/EDC) coupling methodology. The anti-BCMA antibody (2 μg/mL) was captured for 60 seconds at a flow rate of 10 μL/minute. The his-tagged BCMA protein was run at […] different dilutions of 3.12, 6.25, 12.5, 25, 50, 100 and 200 nM, in a running buffer of 0.01 M HEPES pH 7.4, 0.15 M NaCl, 3 mM EDTA, 0.05% v/v Surfactant P20 (HBS-EP+). The 25 nM BCMA protein run was measured two times. All measurements were conducted in HBS-EP+ buffer with a flow rate of 30 μL/minute. A 1:1 (Langmuir) binding model was used to fit the data. […]
(§2) Cross reactivity of two of the anti-BCMA antibodies, BCA7-2C5 and BCA7-2E1, with his-tagged human, cynomolgus or mouse BCMA protein were analyzed by SPR in the manner as described above. […]

Assay [3] concerns the target T3, BCMA on MM1R cells (human, UniProt Q02223).
T3 construct: full length, on the surface of MM1R multiple myeloma cells; also called MM1R multiple myeloma cell line
T3 sequence (receptor, looked up): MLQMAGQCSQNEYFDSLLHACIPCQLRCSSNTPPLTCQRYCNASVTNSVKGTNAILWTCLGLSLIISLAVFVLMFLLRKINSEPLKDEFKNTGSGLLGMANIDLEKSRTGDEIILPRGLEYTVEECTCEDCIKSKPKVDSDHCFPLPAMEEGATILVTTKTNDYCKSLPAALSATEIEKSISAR
As to the kind of experiment: flow cytometry on MM1R cells, 5x serial dilution, FITC goat anti-human IgG F(ab')2, GeoMean BL1-H. The source says: Flow cytometry was used to test antibody binding to multiple myeloma cell line MM1R, using various anti-BCMA antibodies (5× serial dilution) and 80,000 cells per well. The secondary antibody was FITC AffiniPure FAB2 fragment goat anti-human IgG (H+L) (from Jackson Immuno Research). […] A BL-1 detector (IntelliCyt iQue Screener Plus) which detects at 530 nm was used. The geometric mean is reported.

Assay [4] addresses T4, his-tagged cynomolgus BCMA protein (ACROBiosystems, catalog # BCA-052H7) (cynomolgus, UniProt A0A2K5UD97 1-53).
T4 construct: Bought protein; also called cyno BCMA; not shown: his tag
As to the kind of experiment: SPR (Biacore T200), antibody captured on anti-human Fc chip, his-tagged cynomolgus BCMA as analyte. As to the method:
as §1, §2
For orientation: Surface plasmon resonance follows binding to a sensor surface in real time, without labels.

Broadly, the Kd is the constant that tells how readily two partners part at equilibrium. High values mean lower affinity, low ones higher affinity. Broadly, the EC50 (read off the curve) is the midpoint of the concentration-response curve. Read a high EC50 (read off the curve) as weaker potency.

T4 sequence (A0A2K5UD97 entry or part of it): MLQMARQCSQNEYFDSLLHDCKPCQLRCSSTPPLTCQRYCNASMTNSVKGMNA

B1: BCA7-2C5 antibody (antibody, V domains shown)
VH: EVQLVESGGGLVKPGGSLRLSCAASGFTSSTAWMSWVRQAPGKGLEWVGRIKSKSDGGTTDYAAPVKGRFTISRDDSKNTLFLQMNSLKTEDTAVYYCAKGGGTYGYWGQGTTVTVSS
VL: QSALTQPASVSGSPGQSVTISCTGTSSAHGGHYYVSWYQQHPGKAPKLMIYDVSNRPSGVSNRFSGSKSGNTASLTISGLQAEDEADYYCGSYTSSGSYVFGTGTKLTVL
Consider B1, for which the binding result in assay [1] is on record as “no binding (tested: 1 ug/mL)”. Moreover, the figures for the dissociation constant Kd in assay [2] and in assay [4] were 19.4 nM and 57 nM, respectively. Moreover, the “EC50 (read off the curve)” value in assay [3] was about 0.08 µg/mL.
